Data: patent publication US20240409619A1 (WISTAR INSTITUTE OF ANATOMY AND BIOLOGY, published 2024)

Target: SARS-COV-2 spike protein, isolate USA-WA1/2020, on pseudotyped virus (SARS-COV-2, UniProt P0DTC2 14-1273)
Assay: cell-based or functional assay

B1: DMAb 2381_FcWT (antibody, V domains shown)
VH: QMQLVQSGPEVKKPGTSVKVSCKASGFTFTSSAVQWVRQARGQRLEWIGWIAVGSGNTNYAQKFQERVSITRDMSTSTAYMELSSLRSEDTAVYYCAAPYCSRTSCHDAFDIWGQGTKVTVSS
VL: EVVLTQSPGTLSLSPGERATLSCRASQSVSSSYLAWYQQKPGQAPRLLIYGASSRATGIPDRFSGSGSGTDFTLTISRLEPEDFAVYHCQHFGSSSQWTFGQGTKVEIKR
neutralization potency (IC50) of serum against pseudotyped virus: < 5 ng/mL
